Tests used:
[1] = molecular target: LIM protein Ajuba (human (endogenous in HTC75)) (UniProt Q96IF1); experiment: co-IP; IP-Western of endogenous proteins from HTC75 total extracts (also IMR90) with Ajuba serum or antibodies to RPA70, RPA32 or RPA14; cells untreated, treated with 2 mM hydroxyurea for 24 hr (association reduced) or synchronized by double thymidine block and released for 2 hr (no perceptible effect)
[2] = molecular target: His-tagged full-length Ajuba (UniProt Q96IF1); experiment: pull-down; His-tag pull-down on Ni-NTA beads of proteins co-translated in one rabbit reticulocyte lysate reaction with 35S-methionine; beads blocked with 2% BSA, 30 minutes at room temperature, TBST pH 8.0, six washes; autoradiography, signal normalized to input and number of methionines

Chain of RPA70-OB½ABC (P27694 234-612): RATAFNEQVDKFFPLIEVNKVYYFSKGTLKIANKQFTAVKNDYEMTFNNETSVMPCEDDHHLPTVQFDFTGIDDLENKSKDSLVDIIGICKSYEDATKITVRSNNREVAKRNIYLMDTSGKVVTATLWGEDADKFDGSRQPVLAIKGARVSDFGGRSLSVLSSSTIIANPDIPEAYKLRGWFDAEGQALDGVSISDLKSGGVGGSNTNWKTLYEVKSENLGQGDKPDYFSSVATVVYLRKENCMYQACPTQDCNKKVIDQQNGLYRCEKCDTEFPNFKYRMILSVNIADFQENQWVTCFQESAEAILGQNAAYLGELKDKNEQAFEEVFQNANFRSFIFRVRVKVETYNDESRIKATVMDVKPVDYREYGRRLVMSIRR

| pull down efficiency (% of total RPA in association with Ajuba) [1] | pull down relative to full-length RPA70 (set at 100%) [2] | Substance |
| --- | --- | --- |
| 2 to 5% | – | total RPA |
| – | 58.7% | RPA70-OB½ABC (from UniProt P27694 234-612) (domain or fragment) |
